Test results published in patent publication US10487337B2, “Methods for monocot plant improvement” (Agresearch Limited, priority 2014, dated 2019).

Target: T1, BZR1 (Arabidopsis thaliana, UniProt Q8S307)
T1 construct: expressed in transfected cells; host or cells: yeast strain MaV203
T1 sequence (Q8S307 with tags, fused parts or gaps): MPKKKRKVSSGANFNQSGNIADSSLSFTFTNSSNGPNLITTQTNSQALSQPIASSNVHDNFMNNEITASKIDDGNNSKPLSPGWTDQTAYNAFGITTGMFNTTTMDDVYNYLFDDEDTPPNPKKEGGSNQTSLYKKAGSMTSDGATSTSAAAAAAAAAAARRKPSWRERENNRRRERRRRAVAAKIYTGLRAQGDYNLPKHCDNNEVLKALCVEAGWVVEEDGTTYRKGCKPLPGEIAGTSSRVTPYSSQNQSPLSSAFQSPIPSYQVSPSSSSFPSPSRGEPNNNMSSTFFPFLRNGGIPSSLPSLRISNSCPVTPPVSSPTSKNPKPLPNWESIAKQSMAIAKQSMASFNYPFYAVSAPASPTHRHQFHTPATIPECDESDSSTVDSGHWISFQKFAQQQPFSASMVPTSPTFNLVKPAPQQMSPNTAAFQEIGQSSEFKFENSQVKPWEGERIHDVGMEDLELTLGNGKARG
Test: Yeast two hybrid (Y2H) interaction with BZR1
Assay type: binding
Source text: The constructs for Y2H and BiFC assays were generated as follows. Arabidopsis DNA sequences encoding the open reading frames for; At4g14713 (PPD1) and truncation and deletion derivatives of PPD1: PPD1; PPD1Δppd (N-terminal truncation of sequences encoding aa 1-61), PPD1Δtify, (internal deletion of sequences encoding aa 154-186), PPD1Δjas*(C-terminal truncation of sequences encoding aa 229-313) (FIG. 5), At4g28910 (NINJA), At1g15750 (TPL), At1g75080 (BZR1), a synthetic PUAS-35S promoter, and sequences encoding GAL4DBD and c-myc fusion proteins were synthesised and sequence verified by GeneArt. Most sequences were supplied as clones in pENTR221 ready for Gateway cloning into yeast and plant expression vectors. The exception, a promoter sequence for in planta transcription activation assays, incorporating 5′ Xho1 and 3′ Nco1 restriction enzyme sites, was supplied cloned in pMA-RQ. Plasmids for the transient LUC reporter assay: A synthetic promoter with 5×UAS GAL4 DNA binding sites upstream of a −105 bp CaMV35S promoter was cloned into the XhoI-NcoI sites within a dual luciferase construct pNWA62, which contains an intron-containing Firefly Luciferase gene (LUC) and 35Spro::Renilla Luciferase (REN) as an internal standard, to construct pAML7. […]

B1: PPD1: PEAPOD 1 protein of Arabidopsis thaliana, SEQ ID NO: 1 (protein, listed as Arabidopsis thaliana)
chain: MDVGVSPAKSILAKPLKLLTEEDISQLTREDCRKFLKDKGMRRPSWNKSQAIQQVLSLKALYEPGDDSGAGIFRKILVSQPVNPPRVTTTLIEPSNELEACGRVSYPEDNGACHRMDSPRSAEFSGGSGHFVSEKDGHKTTISPRSPAETSELVGQMTIFYSGKVNVYDGIPPEKARSIMHFAANPIDLPENGIFASSRMISKLISKEKMMELPQKGLEKANSSRDSGMEGQANRKVSLQRYREKRKDRKFSKAKKCPGVASSSLEMFLNCQPRMKAAYSQNLGCTGSPLHSQSPESQTKSPNLSVDLNSEGI
interaction with BZR1: no direct interaction
